Laboratory results from US20160193294A1 (UNIVERSITY OF QUEENSLAND, published 2016).

Key:
[1] = target: T1, recombinant protein made of the entire extracellular domain of mouse P-selectin fused to the Fc fragment of … (mouse; human, UniProt Q01102 42-709); assay: cell adhesion assay: calcein-labelled cells of wild-type and knock-out mice on wells coated with the fusion protein
T1 construct: extracellular domain; Bought from R&D Systems and adsorbed to polystyrene wells at 3 ug/ml; also called muPsel-IgG1Fc; muP-selectin-IgG1Fc; not shown: Fc fragment of human IgG1
T1 sequence (looked up): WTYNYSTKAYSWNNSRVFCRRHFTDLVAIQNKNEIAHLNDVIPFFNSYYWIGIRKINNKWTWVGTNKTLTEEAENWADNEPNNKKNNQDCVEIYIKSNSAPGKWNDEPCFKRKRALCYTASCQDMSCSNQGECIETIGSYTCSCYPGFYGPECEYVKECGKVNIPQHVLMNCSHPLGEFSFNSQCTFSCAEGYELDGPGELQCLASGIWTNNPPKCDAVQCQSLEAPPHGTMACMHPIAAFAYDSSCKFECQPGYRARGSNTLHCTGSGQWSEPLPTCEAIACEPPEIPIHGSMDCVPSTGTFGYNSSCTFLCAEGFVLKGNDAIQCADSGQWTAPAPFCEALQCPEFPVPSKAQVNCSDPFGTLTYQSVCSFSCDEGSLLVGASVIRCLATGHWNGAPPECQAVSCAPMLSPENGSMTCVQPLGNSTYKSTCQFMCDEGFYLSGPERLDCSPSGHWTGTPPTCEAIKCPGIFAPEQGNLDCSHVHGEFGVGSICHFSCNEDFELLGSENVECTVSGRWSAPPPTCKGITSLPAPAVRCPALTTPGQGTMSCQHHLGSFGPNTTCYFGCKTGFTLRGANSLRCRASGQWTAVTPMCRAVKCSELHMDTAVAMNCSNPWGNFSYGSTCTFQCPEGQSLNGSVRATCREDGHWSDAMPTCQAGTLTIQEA
Procedure: 96-well polystyrene cell culture plates were coated overnight at 4*C with 50 μL per well of phosphate buffered saline containing 3 μg/ml of recombinant proteins made of the entire extracellular domain of mouse E-selectin, P-selectin or VCAM-1/CD106 fused to the Fc fragment of human IgG1 (muEsel-IgG1Fc, muPsel-IgG1Fc, or muVCAM1-IgG1Fc respectively, from R&D Systems)) as previously described 8. Prior to the experiment, plates were flicked to remove excess coating solution and filled with Hepes buffered saline supplemented with 2% bovine serum albumin to block non-specific adhesion to plastic surfaces. […]
Bone marrow cells from CD44 KO, PSGL1 KO and CD44-PSGL1 double KO mice were stained with FITC-conjugated biotinylated rat monoclonal antibodies specific for CD3, CD5. […] Lineage-negative CD117-positive hematopoietic progenitor cells were then sorted by fluorescence activated cell sorting on an Aria cell sorter (BD Biosciences).
Sorted Lineage-negative CD117-positive hematopoietic progenitor cells when then washed and resuspended in cell adhesion buffer and labelled with the intracellular fluorescent dye calcein-AM (Molecular Probes) for 40 minutes at 37° C. […] The fluorescence contained in the remaining adherent cells was measured on a Fluorostar plate fluorometer following exciting at 488 nm using a 530 nm filter.

[2] = target: T2, recombinant human E-selectin extracellular domain fused with the Fc fragment of human IgM (human, UniProt P16581 22-556); assay: flow cytometry: soluble selectin-IgMFc on bone marrow granulocytes of wild-type and knock-out mice
T2 construct: extracellular domain; Used as COS7 supernatant (pCDM8 plasmid); It was pre-complexed with Cy5-conjugated donkey anti-human IgM F(ab)'2 before the assay; also called E-selectin-IgMFc; selectin-IgMFc; not shown: Fc fragment of human IgM
T2 sequence (looked up): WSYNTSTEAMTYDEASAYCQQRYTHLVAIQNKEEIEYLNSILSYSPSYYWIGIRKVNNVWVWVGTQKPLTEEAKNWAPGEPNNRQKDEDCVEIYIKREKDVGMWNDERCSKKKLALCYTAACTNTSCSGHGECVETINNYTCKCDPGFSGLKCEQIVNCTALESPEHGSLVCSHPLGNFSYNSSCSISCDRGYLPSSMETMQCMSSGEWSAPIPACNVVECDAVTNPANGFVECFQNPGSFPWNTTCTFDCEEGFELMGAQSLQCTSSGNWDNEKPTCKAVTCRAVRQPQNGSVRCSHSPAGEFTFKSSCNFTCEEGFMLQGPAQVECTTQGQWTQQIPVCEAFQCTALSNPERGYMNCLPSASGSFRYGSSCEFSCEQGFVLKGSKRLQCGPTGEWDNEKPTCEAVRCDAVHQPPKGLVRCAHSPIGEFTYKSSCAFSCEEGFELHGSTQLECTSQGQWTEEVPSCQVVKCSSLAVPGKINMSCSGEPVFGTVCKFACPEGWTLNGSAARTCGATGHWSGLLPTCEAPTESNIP
From the text: In a second assay, binding of recombinant E-selectin and P-selectin was directly measured in solution by flow cytometry. For this purpose, recombinant human P-selectin or E-selectin extracellular domains fused with the Fc portion of human IgM were used as selectins required prior clustering to bind to their cellular receptors. As IgM are decameric proteins, each fusion recombinant protein is a decamer or either P-selectin or E-selectin. The clustering resulting from decamerization of selectin enables them to directly interact in solution with their cellular receptors. The inventors therefore measured the binding of recombinant selectin-IgM Fc fusion proteins to bone marrow cells isolated from wild-type, PSGL1−/−, CD44−/− or PSGL1−/−CD44−/− double KO mice. Detection by flow cytometry was performed by pre-complexing the selectin-IgMFc fusion proteins with a Cy5-conjubated donkey anti-human IgM antibody. […] Thus these experiments confirm that PSGL1 and CD44 are necessary and sufficient for E-selectin binding to mature granulocytes, hematopoietic stem cells can bind and adhere to E-selectin via alternative receptors which are not encoded by the PSGL1 and C44 genes.
Prior to the experiment, recombinant selectin-IgMFc fusion proteins were complexed with Cy5-conjugated donkey IgG F(ab)′2 fragments anti-human IgM. […]

binding result [1]: binds | binding result [2]: binds
B1: P-selectin glycoprotein ligand-1 (mouse, on bone marrow cells) (receptor, UniProt Q62170 42-397, looked up)
chain: QVVGDDDFEDPDYTYNTDPPELLKNVTNTVAAHPELPTTVVMLERDSTSAGTSERATEKIATTDPTAPGTGGTAVGMLSTDSATQWSLTSVETVQPASTEVETSQPAPMEAETSQPAPMEAETSQPAPMEAETSQPAPMEADTSQPAPMEAETSQPAPNEAETSKPAPTEAETSKPAPTEAETTQLPRIQAVKTLFTTSAATEVPSTEPTTMETASTESNESTIFLGPSVTHLPDSGLKKGLIVTPGNSPAPTLPGSSDLIPVKQCLLIILILASLATIFLVCTVVLAVRLSRKTHMYPVRNYSPTEMICISSLLPEGGDGAPVTANGGLPKVQDLKTEPSGDRDGDDLTLHSFLP
notes: whole, on cells; also called PSGL-1; PSGL1
